The target in data set [1] is T1, Escherichia coli DnaB replicative helicase (wild-type) (E. coli, UniProt P0ACB0 1-471).
T1 construct: DnaB replicative DNA helicase, E. coli, wild-type; The introduction describes DnaB as a closed ring-shaped hexamer; also called DnaB helicase
Briefly: SEC; 10 nmol DnaB and 12 nmol DnaC (1.2:1 DnaC:DnaB) in 20 mM Tris-HCl pH 8.5, 0.2 M NaCl, 5 mM MgCl2, 1 mM BME, 1 mM ATP; analytical size exclusion column (Increase 10/300 GL); peak fractions analysed by PAGE for DnaB and DnaC. The conditions noted are these: both partners purified.

In a further data set the target is T2, DnaC (wild-type) (Escherichia coli, UniProt P0AEF0 1-245).
T2 sequence: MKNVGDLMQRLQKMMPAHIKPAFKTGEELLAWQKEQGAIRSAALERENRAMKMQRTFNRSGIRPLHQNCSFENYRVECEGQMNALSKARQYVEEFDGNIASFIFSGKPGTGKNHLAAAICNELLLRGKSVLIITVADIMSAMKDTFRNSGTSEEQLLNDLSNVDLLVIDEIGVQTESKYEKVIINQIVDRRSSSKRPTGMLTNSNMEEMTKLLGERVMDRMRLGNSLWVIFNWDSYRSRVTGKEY
Briefly: fluorescence anisotropy; 5 mM Mg2+, 2 mM ATP; 50 mM HEPES-KOH pH 7.5, 125 mM KCl, 10% glycerol, 5 mM MgCl2, 2 mM ATP, 2 mM DTT, 0.1 mg/ml BSA, 10 nM DNA, 0-50 uM DnaC; 37 C 15 min, read at 25 C; saturation. The settings on record: protein: recombinant; tags: 6XHis-MBP removed by TEV; single strand.

The target of a further data set is T3, DnaC 1331 (Escherichia coli, UniProt P0AEF0 1-245, A84T).
T3 sequence: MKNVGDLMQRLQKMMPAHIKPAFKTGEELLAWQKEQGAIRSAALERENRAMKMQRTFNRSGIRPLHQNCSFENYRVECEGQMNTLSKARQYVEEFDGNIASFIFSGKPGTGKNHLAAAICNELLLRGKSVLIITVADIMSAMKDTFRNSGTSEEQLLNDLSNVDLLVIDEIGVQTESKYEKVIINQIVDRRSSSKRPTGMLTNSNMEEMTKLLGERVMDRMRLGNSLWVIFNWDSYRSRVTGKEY
Briefly: fluorescence anisotropy; 5 mM Mg2+, 2 mM ATP; similar to wild-type; 50 mM HEPES-KOH pH 7.5, 125 mM KCl, 10% glycerol, 5 mM MgCl2, 2 mM ATP, 2 mM DTT, 0.1 mg/ml BSA, 10 nM DNA, 0-50 uM DnaC; 37 C 15 min, read at 25 C; saturation. The settings on record: protein: recombinant; tags: 6XHis-MBP, TEV cleaved; periplasmic localization signal on expression construct; single strand.

In a further data set the target is T4, DnaC 809,820 (Escherichia coli, UniProt P0AEF0 1-245, E176G;K178N).
T4 sequence: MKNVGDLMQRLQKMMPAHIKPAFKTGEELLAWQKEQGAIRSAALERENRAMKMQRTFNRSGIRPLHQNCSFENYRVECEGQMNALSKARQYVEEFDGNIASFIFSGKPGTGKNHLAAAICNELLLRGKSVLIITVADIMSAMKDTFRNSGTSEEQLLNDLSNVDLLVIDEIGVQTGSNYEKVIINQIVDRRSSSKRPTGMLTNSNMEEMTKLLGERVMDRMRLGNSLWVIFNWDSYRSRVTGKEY
The data set is described as above. The conditions noted are these: protein: recombinant; tags: 6XHis-MBP, TEV cleaved; periplasmic localization signal on expression construct; single strand.

The target of the next data set is T5, DnaC 809 (Escherichia coli, UniProt P0AEF0 1-245, E176G).
T5 sequence: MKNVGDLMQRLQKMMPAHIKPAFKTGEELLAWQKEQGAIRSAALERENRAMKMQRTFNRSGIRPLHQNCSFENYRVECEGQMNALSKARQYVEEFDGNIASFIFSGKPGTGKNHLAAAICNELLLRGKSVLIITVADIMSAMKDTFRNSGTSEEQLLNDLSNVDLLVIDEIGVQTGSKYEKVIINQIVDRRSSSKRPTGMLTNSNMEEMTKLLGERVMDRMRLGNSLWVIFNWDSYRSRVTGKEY
The data set is described as above. The settings on record: protein: recombinant; tags: 6XHis-MBP, TEV cleaved; periplasmic localization signal on expression construct; single strand.

T1 sequence (P0ACB0 whole entry): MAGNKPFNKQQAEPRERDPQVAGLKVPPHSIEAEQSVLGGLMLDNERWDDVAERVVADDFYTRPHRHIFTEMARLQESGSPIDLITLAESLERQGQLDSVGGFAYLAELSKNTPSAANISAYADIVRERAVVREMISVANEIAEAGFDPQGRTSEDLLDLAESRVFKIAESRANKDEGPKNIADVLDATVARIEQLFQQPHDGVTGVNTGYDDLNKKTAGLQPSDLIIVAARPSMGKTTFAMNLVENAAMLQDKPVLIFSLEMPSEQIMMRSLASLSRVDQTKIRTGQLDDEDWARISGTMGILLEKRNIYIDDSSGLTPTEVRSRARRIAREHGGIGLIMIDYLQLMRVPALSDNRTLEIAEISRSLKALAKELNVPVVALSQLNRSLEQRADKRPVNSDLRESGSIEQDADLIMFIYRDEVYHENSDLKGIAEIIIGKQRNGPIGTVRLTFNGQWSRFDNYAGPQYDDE

B1: DnaC 809 (E176G) (natural protein, E. coli, UniProt P0AEF0 1-245, looked up)
chain: MKNVGDLMQRLQKMMPAHIKPAFKTGEELLAWQKEQGAIRSAALERENRAMKMQRTFNRSGIRPLHQNCSFENYRVECEGQMNALSKARQYVEEFDGNIASFIFSGKPGTGKNHLAAAICNELLLRGKSVLIITVADIMSAMKDTFRNSGTSEEQLLNDLSNVDLLVIDEIGVQTGSKYEKVIINQIVDRRSSSKRPTGMLTNSNMEEMTKLLGERVMDRMRLGNSLWVIFNWDSYRSRVTGKEY
notes: DnaC helicase loader, E. coli, with E176G; Point mutation introduced by site-directed mutagenesis; the allele was first isolated as a suppressor of priA deficiency; also called product of dnaC809
With B1, the binding result in data set [1] is listed as “binds”.

B2: DnaC 811 (I184F) (natural protein, E. coli, UniProt P0AEF0 1-245, looked up)
chain: MKNVGDLMQRLQKMMPAHIKPAFKTGEELLAWQKEQGAIRSAALERENRAMKMQRTFNRSGIRPLHQNCSFENYRVECEGQMNALSKARQYVEEFDGNIASFIFSGKPGTGKNHLAAAICNELLLRGKSVLIITVADIMSAMKDTFRNSGTSEEQLLNDLSNVDLLVIDEIGVQTESKYEKVIFNQIVDRRSSSKRPTGMLTNSNMEEMTKLLGERVMDRMRLGNSLWVIFNWDSYRSRVTGKEY
notes: DnaC helicase loader, E. coli, with I184F; Point mutation introduced by site-directed mutagenesis; also called product of dnaC811
For the molecule B2, in data set [1], the binding result is “binds”.

B3: DnaC 809,820 (E176G, K178N) (natural protein, E. coli, UniProt P0AEF0 1-245, looked up)
chain: MKNVGDLMQRLQKMMPAHIKPAFKTGEELLAWQKEQGAIRSAALERENRAMKMQRTFNRSGIRPLHQNCSFENYRVECEGQMNALSKARQYVEEFDGNIASFIFSGKPGTGKNHLAAAICNELLLRGKSVLIITVADIMSAMKDTFRNSGTSEEQLLNDLSNVDLLVIDEIGVQTGSNYEKVIINQIVDRRSSSKRPTGMLTNSNMEEMTKLLGERVMDRMRLGNSLWVIFNWDSYRSRVTGKEY
notes: DnaC helicase loader, E. coli, with E176G and K178N; Point mutations introduced by site-directed mutagenesis; also called product of dnaC809,820
As for B3, in data set [1], the binding result is “binds”.

As for TTTTTTTTTTTTTTTTTTTT (ssDNA) [dT20], the binding result in the data set with DnaC (wild-type), with DnaC 1331, with DnaC 809,820 and in the data set with DnaC 809 was “binds” in each case.

Values taken from paper PMC11087952, “Biochemical characterization of Escherichia coli DnaC variants that alter DnaB helicase loading onto DNA” (The Journal of Biological Chemistry, 2024).
